Legend:
[1] = molecular target: SARS-CoV-2 Omicron BA.2 spike receptor-binding domain (SARS-CoV-2 Omicron BA.2, strain); test: BLI
[2] = molecular target: SARS-CoV-2 Omicron BA.5 spike receptor-binding domain (SARS-CoV-2 Omicron BA.5, N440K | L452R | F486V); test: BLI

B1: MO1 monoclonal antibody (recombinant human IgG) (antibody, V domains shown)
VH: EVQLVESGGGMVQPGRSLRLSCAASGFTFDDYAMHWVRQIPGKGLEWVSGISWNSGDIGYADSVKGRFTISRDNAKNSLHLQMNSLRAEDTALYYCAKDKTYDSPGYFLNSFDYWGQGTLVTVSS
VL: DIQMTQSPSSLSASVGDRVTITCRASQGISSYLVWYQQKPGKAPKFLIYAASTLQSGVPSRFSGSGSGTDFTLTISSLQPEDFATYYCQQLYSYPITFGQGTRLEIK
Kd [1]: 3.3 nM
Kd [2]: 11 nM
